Kd, koff and kon data for 6 molecules are collected here from patent US20260028403A1 (Zymeworks, published 2026).

For assay [1], the target named is T1, Recombinant human CD3 epsilon/delta heterodimer, his tag protein (Acro Biosystems) (human, UniProt P07766 23-126; P04234 22-105).
T1 construct: bought
The experiment in a line: SPR Biacore T200, CD3 e/d-his on CM5, construct injected, 1:1 model.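 Note: measured at 25 °C in HEPES-buffered saline with EDTA and Tween 20 at pH 7.4, values are means of three independent runs.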 Background: Surface plasmon resonance follows binding to a sensor surface in real time, without labels.
Procedure: All SPR binding experiments were carried out using a BiacoreT200 instrument at 25° C. with 10 mM HEPES, 150 mM NaCl, 3 mM EDTA, and 0.05% Tween 20 at pH 7.4. Recombinant human CD3 epsilon/delta heterodimer, his tag protein (Acro Biosystems) was covalently immobilized on CM5 sensor chips by amine coupling. Purified antibody constructs to be tested were indirectly captured on the sensor chip by binding to the recombinant CD3 protein when injected at 30 μL/min for 140-500 s following a dissociation for 600-1200 s. Resultant kₒₙ, koff and KD values were determined from fitting the sensorgrams using the 1:1 binding model with reported values as the mean of three independent runs.

Assay [2] addresses T2, Recombinant human/cynomolgus/rhesus macaque CD28 mouse IgG2a Fc fusion protein (Acro Biosystems) (human/cynomolgus/rhesus macaque, UniProt P10747 19-152).
T2 construct: bought; also called huCD28
The experiment in a line: SPR Biacore T200, CD28-mIgG2a Fc on CM5, construct injected, 1:1 model.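 Note: fc fusion captured by amine coupling, run at 25 °C in HEPES buffer pH 7.4, association 140-500 s then dissociation 600-1200 s, values averaged over three independent runs.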

B1: v37639 (trispecific antibody, human IgG1, kappa, L234A L235A)
heavy 1: not shown
heavy 2: QVQLVESGGGLVQPGGSLRLSCSVSGIDLSSNPMIWVRQAPGKGLQYIGIIDTDGSTYYADWAKGRFTISKDSTTVYLQINSPRAEDTAVYYCARRLHGSSNGYYDDLWGQGTLVTVSSGGGGSGGGGSGGGGSGGGGSDGQMTQSPSSVSASVGDRVTITCQASQSIYSYLSWYQQKPGQRPKLLIYKASTLASGVPSRFSGSGSGTDFTLTISSVQPEDFATYYCQQGYTVTNVDKNTFGGGTKVEIKAAEPKSSDKTHTCPPCPAPEAAGGPSVFLFPPKPKDTLMISRTPEVTCVVVSVSHEDPEVKFNWYVDGVEVHNAKTKPREEQYNSTYRVVSVLTVLHQDWLNGKEYKCKVSNKALPAPIEKTISKAKGQPREPQVYVLPPSRDELTKNQVSLLCLVKGFYPSDIAVEWESNGQPENNYLTWPPVLDSDGSFFLYSKLTVDKSRWQQGNVFSCSVMHEALHNHYTQKSLSLSPG
light: DIQMTQSPSSLSASVGDRVTITCRASESVEYYVTSLMQWYQQKPGKAPKLLIYAASNVDSGVPSRFSGSGSGTDFTLTISSLQPEDIATYYCQQSRKVPFTFGGGTKVEIKRTVAAPSVFIFPPSDEQLKSGTASVVCLLNNFYPREAKVQWKVDNALQSGNSQESVTEQDSKDSTYSLSSTLTLSKADYEKHKVYACEVTHQGLSSPVTKSFNRGECGGGGSGNFMLTQPHSVSESPGKTVTISCKRNTGNIGSNYVNWYQQHEGSSPTTIIYRNDKRPDGVSDRFSGSIDRSSKSASLTISNLKTEDEADYFCQSYSSGFIFGGGTKLTVLGGGGSGGGGSGGGGSGGGGSEVQLVESGGGLVQPGGSLRLSCAASGVTFNYYGMSWIRQAPGKGLEWVASITSSGGRIYYPDSVKGRFTISRENTQKTLYLQMNSLRAEDTAVYYCTLDGRDGWVAYWGQGTLVTVSS
notes: Het Fc, FcKO; also called Cldn18.2xCD28xCD3 trispecific
The Kd is the concentration at which binding is half-saturated. A word on the koff: it is the rate constant with which the complex falls apart. What is called kon is a measure of how fast the partners come together. As for B1, in assay [1], the Kd was determined as 492 nM, the koff was 0.0144 s⁻¹ and the kon came to 29200 M⁻¹ s⁻¹. Moreover, in assay [2], the Kd came to 23.9 nM, the koff was 0.00201 s⁻¹ and the kon was 84100 M⁻¹ s⁻¹.

B2: v37665 (bispecific antibody, human IgG1, kappa, L234A L235A)
heavy 1: not shown
heavy 2: B1 heavy 2
light: DIQMTQSPSSLSASVGDRVTITCRASESVEYYVTSLMQWYQQKPGKAPKLLIYAASNVDSGVPSRFSGSGSGTDFTLTISSLQPEDIATYYCQQSRKVPFTFGGGTKVEIKRTVAAPSVFIFPPSDEQLKSGTASVVCLLNNFYPREAKVQWKVDNALQSGNSQESVTEQDSKDSTYSLSSTLTLSKADYEKHKVYACEVTHQGLSSPVTKSFNRGEC
notes: 13B08 VH-VL scFv); also called anti-(CLDN18.2xCD28) bispecific control
Turning to B2, in assay [2], the Kd was 25.1 nM, the koff is 0.00224 s⁻¹ and the kon came to 89400 M⁻¹ s⁻¹.

B3: v37636 (trispecific antibody, human IgG1, lambda, L234A L235A)
heavy 1: QVQLVESGGGLVQPGGSLRLSCSVSGIDLSSNPMIWVRQAPGKGLQYIGIIDTDGSTYYADWAKGRFTISKDSTTVYLQINSPRAEDTAVYYCARRLHGSSNGYYDDLWGQGTLVTVSSGGGGSGGGGSGGGGSGGGGSDGQMTQSPSSVSASVGDRVTITCQASQSIYSYLSWYQQKPGQRPKLLIYKASTLASGVPSRFSGSGSGTDFTLTISSVQPEDFATYYCQQGYTVTNVDKNTFGGGTKVEIKGGGGSGEVQLVESGGGLVQPGGSLRLSCAASGVTFNYYGMSWIRQAPGKGLEWVASITSSGGRIYYPDSVKGRFTISRENTQKTLYLQMNSLRAEDTAVYYCTLDGRDGWVAYWGQGTLVTVSSASTKGPSVFPLAPSSKSTSGGTAALGCLVKDYFPEPVTVSWNSGALTSGVHTFPAVLQSSGLYSLSSVVTVPSSSLGTQTYICNVNHKPSNTKVDKKVEPKSCDKTHTCPPCPAPEAAGGPSVFLFPPKPKDTLMISRTPEVTCVVVSVSHEDPEVKFNWYVDGVEVHNAKTKPREEQYNSTYRVVSVLTVLHQDWLNGKEYKCKVSNKALPAPIEKTISKAKGQPREPQVYVYPPSRDELTKNQVSLTCLVKGFYPSDIAVEWESNGQPENNYKTTPPVLDSDGSFALVSKLTVDKSRWQQGNVFSCSVMHEALHNHYTQKSLSLSPGGGGGSGDIQMTQSPSSLSASVGDRVTITCRASESVEYYVTSLMQWYQQKPGKAPKLLIYAASNVDSGVPSRFSGSGSGTDFTLTISSLQPEDIATYYCQQSRKVPFTFGGGTKVEIKGGGGSGGGGSGGGGSGGGGSQVQLQESGPGLVKPSETLSLTCAVSGFSLTSYGVHWIRQPPGKGLEWLGVIWPGGGTNFNSALMSRLTISEDTSKNQVSLKLSSVTAADTAVYYCARDRAYGNYLYAMDYWGQGTLVTVSS
heavy 2: EPKSSDKTHTCPPCPAPEAAGGPSVFLFPPKPKDTLMISRTPEVTCVVVSVSHEDPEVKFNWYVDGVEVHNAKTKPREEQYNSTYRVVSVLTVLHQDWLNGKEYKCKVSNKALPAPIEKTISKAKGQPREPQVYVLPPSRDELTKNQVSLLCLVKGFYPSDIAVEWESNGQPENNYLTWPPVLDSDGSFFLYSKLTVDKSRWQQGNVFSCSVMHEALHNHYTQKSLSLSPG
light: NFMLTQPHSVSESPGKTVTISCKRNTGNIGSNYVNWYQQHEGSSPTTIIYRNDKRPDGVSDRFSGSIDRSSKSASLTISNLKTEDEADYFCQSYSSGFIFGGGTKLTVLGQPKAAPSVTLFPPSSEELQANKATLVCLISDFYPGAVTVAWKADSSPVKAGVETTTPSKQSNNKYAASSYLSLTPEQWKSHRSYSCQVTHEGSTVEKTVAPTECS
notes: second heavy chain is Fc only; Het Fc, FcKO; also called Cldn18.2xCD3xCD28 trispecific
Consider B3, for which, in assay [1], the Kd worked out at 160 nM, the koff worked out at 0.021 s⁻¹ and the kon was 134000 M⁻¹ s⁻¹. Also, in assay [2], the Kd worked out at 434 nM, the koff is 0.0132 s⁻¹ and the kon came out at 30400 M⁻¹ s⁻¹.

B4: v37666 (bispecific antibody, human IgG1, kappa, L234A L235A)
heavy 1: not shown
heavy 2: B3 heavy 2
light: B2 light
notes: Fc without paratope; also called anti-(CLDN18.2xCD28) bispecific control
Consider B4, for which, in assay [2], the Kd was 32.4 nM, the koff was 0.00217 s⁻¹ and the kon came to 67300 M⁻¹ s⁻¹.

B5: v37637 (trispecific antibody, human IgG1, lambda, L234A L235A)
heavy 1: not shown
heavy 2: QVQLVESGGGLVQPGGSLRLSCSVSGIDLSSNPMIWVRQAPGKGLQYIGIIDTDGSTYYADWAKGRFTISKDSTTVYLQINSPRAEDTAVYYCARRLHGSSNGYYDDLWGQGTLVTVSSGGGGSGGGGSGGGGSGGGGSDGQMTQSPSSVSASVGDRVTITCQASQSIYSYLSWYQQKPGQRPKLLIYKASTLASGVPSRFSGSGSGTDFTLTISSVQPEDFATYYCQQGYTVTNVDKNTFGGGTKVEIKGGGGSGEVQLVESGGGLVQPGGSLRLSCAASGVTFNYYGMSWIRQAPGKGLEWVASITSSGGRIYYPDSVKGRFTISRENTQKTLYLQMNSLRAEDTAVYYCTLDGRDGWVAYWGQGTLVTVSSASTKGPSVFPLAPSSKSTSGGTAALGCLVKDYFPEPVTVSWNSGALTSGVHTFPAVLQSSGLYSLSSVVTVPSSSLGTQTYICNVNHKPSNTKVDKKVEPKSCDKTHTCPPCPAPEAAGGPSVFLFPPKPKDTLMISRTPEVTCVVVSVSHEDPEVKFNWYVDGVEVHNAKTKPREEQYNSTYRVVSVLTVLHQDWLNGKEYKCKVSNKALPAPIEKTISKAKGQPREPQVYVLPPSRDELTKNQVSLLCLVKGFYPSDIAVEWESNGQPENNYLTWPPVLDSDGSFFLYSKLTVDKSRWQQGNVFSCSVMHEALHNHYTQKSLSLSPG
light: B3 light
notes: Het Fc, FcKO; also called Cldn18.2xCD3xCD28 trispecific
Regarding B5, in assay [1], the Kd worked out at 106 nM, the off-rate (koff) is 0.0129 s⁻¹ and the kon turned out to be 121000 M⁻¹ s⁻¹. Besides, in assay [2], the equilibrium dissociation constant (Kd) amounted to 61.4 nM, the koff was found to be 0.00692 s⁻¹ and the kon was found to be 113000 M⁻¹ s⁻¹.

B6: v37669 (bispecific antibody)
heavy 1: EVQLVESGGGLVQPGGSLRLSCAASGVTFNYYGMSWIRQAPGKGLEWVASITSSGGRIYYPDSVKGRFTISRENTQKTLYLQMNSLRAEDTAVYYCTLDGRDGWVAYWGQGTLVTVSSASTKGPSVFPLAPSSKSTSGGTAALGCLVKDYFPEPVTVSWNSGALTSGVHTFPAVLQSSGLYSLSSVVTVPSSSLGTQTYICNVNHKPSNTKVDKKVEPKSCDKTHTCPPCPAPEAAGGPSVFLFPPKPKDTLMISRTPEVTCVVVSVSHEDPEVKFNWYVDGVEVHNAKTKPREEQYNSTYRVVSVLTVLHQDWLNGKEYKCKVSNKALPAPIEKTISKAKGQPREPQVYVYPPSRDELTKNQVSLTCLVKGFYPSDIAVEWESNGQPENNYKTTPPVLDSDGSFALVSKLTVDKSRWQQGNVFSCSVMHEALHNHYTQKSLSLSPGGGGGSGNFMLTQPHSVSESPGKTVTISCKRNTGNIGSNYVNWYQQHEGSSPTTIIYRNDKRPDGVSDRFSGSIDRSSKSASLTISNLKTEDEADYFCQSYSSGFIFGGGTKLTVLGGGGSGGGGSGGGGSGGGGSEVQLVESGGGLVQPGGSLRLSCAASGVTFNYYGMSWIRQAPGKGLEWVASITSSGGRIYYPDSVKGRFTISRENTQKTLYLQMNSLRAEDTAVYYCTLDGRDGWVAYWGQGTLVTVSS
heavy 2: B1 heavy 2
light: B3 light
notes: bivalent for CD3; also called 2x1 anti-(CD3xCD3xCLDN18.2) control
B6: in assay [1], the dissociation constant Kd is 4.38 nM, the koff stood at 0.00255 s⁻¹ and the kon came out at 589000 M⁻¹ s⁻¹.
